# Measurements taken from the DeepSol protein solubility set.
# Test: soluble on expression in E. coli; label from the status in PepcDB or PDB records
row,Sequence,soluble on expression in E. coli
1,MKNKKTLTKVALTTGLALTAVAPYGVGHAEETDQLQVQIQEESFRSGELTQPSQKAPENVVKDALKEKTEQALSPKQVNGETGVDYKVLQKRGSYDGTTLVRIQQTYEGKEVYGHQLTAHVDNSGVIKSVSGDSAQNLKQEELKKPINLSKDEATQYIYTKYGNDINFISEPEVKEVIFVDENNGQASNAYQVTFEAATPNYISGTYLINAQNGDMLKNMVQESNLKASEKLVGALKKSKKSSLTSLTGTGKDDLGISRSFGISKQSNGKYALADYTRGQGIETYDVNYRDITKEESYYPGTLATSTSTTFNDPKAVSAHYLATKVFDFYKDKYNRNSFDNQGQKVVSVVHAWDSGDTNDPKNWQNALSANNGSMLVYGDPIVKAYDVAGHEFTHAVTSSESNLEYYGESGAINEALSDIMGTSIEKYVNNGSFNWTMGEQTGSVFRDMENPTSVPSSLGVPYPDDYSEFNDFNGWDQGGVHFNSSIINKVAYLIAKGGTHNGVTVKGIGEDKMFDIFYYANTDELNMTSNFKELRSACIRVATNKYGANSAEVQAVQKAFDAAKIK,not soluble
2,MKNLENYFDKAELQHFFECLTDDDNTPQASVFFRLAAFTGMRKSEMLCLEWSDIDFSNHTIRVNKTQSRGDGARLLVQAPKTARSNRTVYLDPTTIKILQHWQVDQKKWLLRFGFNINQGNHYVFANENNEMFQPSKPRKWLEHTLTKYDLKHVTVHAFRHTYATLAFEAHASIKSVQDQLGHSSYRTTLDIYTAVTAKQKNEATEKLANYLNFLEHHHHHH,not soluble
3,MKNLSLFTDFYEISMMNAYFTKGINPKAKFEVFFRKTPFKNGYIVLAGMHTLINELKNIRFGENELKYLKSFNILDKQFLNFLREFKLNVKISSIEEGRIVFPQAPVVVIEGHLIELLLIEGLVLNIINFESLIATKTARIKESGAKILAELGLRRAQGINGALSASKAAYIGGADFTSNMLAGYKYNIPVTGTMAHSWIMSFETEEQAFREYAKTYPNKVSLLIDTYDTLNSGLKNAIKIFKELKHEEKNNFSIRIDSGDLEYLSKAARKELNRNGLNHVKIIASNELDENIIMYLNSINAPIDIWGVGTNLVTAKGDPSLSGVYKMISIEKNGKFIPKIKISNNAEKSTLPDQKEVARIYLNDQMILDFIFLKEEKDKIKDHLNSRKEFTVFHPIQDNIFKIIKQYDDFEFLTHTVLENGKLRKGYESSLTNIRNKTKLDLSKLEHTYKRIINPHIYKVSISKNLRKLKNKLTKDIKNN,not soluble
4,MKNMIKAASLGLIILSSSMMANAAEAAQKIGYINTAQVFQALPQREVVLQKMQEEFKDKAAELQAIQADAKTKIEKLKRDGQLMGQDEVEKLRIEIGQLDSKYKIKAQALEQASARREAEEKQKLFKVIQDAVKKVAEKEGYDIVLDTSSMQYGKPEHNLSEKVIKAIK,not soluble
5,MKNNPLISIYMPTWNRQQLAIRAIKSVLRQDYSNWEMIIVDDCSTSWEQLQQYVTALNDPRITYIHNDINSGACAVRNQAIMLAQGEYITGIDDDDEWTPNRLSVFLAHKQQLVTHAFLYANDYVCQGEVYSQPASLPLYPKSPYSRRLFYKRNIIGNQVFTWAWRFKECLFDTELKAAQDYDIFLRMVVEYGEPWKVEEATQILHINHGEMQITSSPKKFSGYFHFYRKHKDKFDRASKKYQLFTLYQIRNKRMTWRTLLTLLSVRNGKRLADGIRGRLEHHHHHH,soluble
6,MKNPRHIAVIDIGKTNAKLALVDLQNHREIAVLTRPNTVLPGPPWRHFDTDGHWDFLLAALKVLHGEHGIDAISISTHGASVVLLDAQGDLAAPVLDYEHPIPADIAQAYDAIRPPFAQTGSARLANGLNVGAQLFYQFAQDPGLRDRTRHIVGYPQYWGHRLTGEFAWDVTSIGCHTDLWEPVTGRFSSLVDRLGIAEKLAPVRHCADVLGSILPEVAAATGLSADTPVTVGIHDSNASLYPHLLTQEAPFSVVSTGTWVVAMAVGSKVPGLDPTRDTLVNVNAMGQPVPSARFMGGREHEVIQAGQPCPPTPQDVAQVLADSVMILPAVEPASGPFQGRKMRWSGPEPAPGTGPRSAALSFYLALMTSTCLALIAARGVTIVEGPFAQNREFKSMLSVATGRAVLHSQSATGTSMGASLLFSSDRTPPLPQTNVSEEDAQAYRTYAKEWHQQITLEHHHHHH,not soluble
7,MKNPTVSIIIPVYNAEGTITRCLDSIIHQTYSSIEVIIIDDGSSDLSGSICDNYATKYNYIQVIHKKNEGVSIARQIGVKHSKGLYSIHVDADDYIDKCEIERMMDIALKFNADMVVCDYILEYKKNKFVYQKGMKDACDAFDFLKQIYNGIFIGTLWNKLIKTSLYNNVIFLKQCNYCEDVYILTQILSNNISINYINEALYHYCYDASSLTREINRNYIINRIIFIQEIEKILPLDLDLSRFKAGIKLSILKSGEYTYKEYINLYPNTNIPKELLNKRNLLFLSTANFFIGYQFLKILFNLKKRFKSFHL,not soluble
8,MKNTLLKLGVCVSLLGITPFVSTISSVQAERKVEHKVIKNETGTISISQLNKNVWVHTELGYFNGEAVPSNGLILNTSKGLVLVDSSWDDKLTKELIEMAEKKFKKSVTDVIITHAHADRIGGIKTLKERGIKAHSTTLTAELAKKNGYEEPLGDLQAITKLKFGNMKVETFYPGKGHTEDNIVVWLPQYNMLVGGCLVKSASAKDLGNITDAYVNEWSTSIENVLKRYENINFVVPGHGEVGDKGLLLHTLDLLK,not soluble
9,MKNTQFALFMVLNGRATEALTFYQEAFAGDILFKITNQEFKERLNPSLTIPAGEEHWLSHSILQMDTFQLQLADNPLFAGMNTTPTEQLTLSLTVNSRHSAKTIFEKLTCHPESCIIQEPIENEFATFYAIVKDPFGLVTQITHEKQADPTKKGS,not soluble
10,MKNWLAYINSLHSREIDLGLSRITSLAEKLSLNNFACPVVTVAGTNGKGSVVKSLESIYLAAGYKVAAYTSPHLLQFNERLRLNGEPATDELFIEAFKFIEDNRNHQPLSFFEFTTLAIFYICKKQNLDILLLEVGLGGRLDAVNIVEPDVAVITTIDIDHTDWLGEDRESIGREKAGIIRRHKPVIGGDPNLPNSVYEQVHLLEAPFYQLEKDFFAVSTKENWQWQGPTQDYQGLPLPSLKIENIATSLMVIHCLQSQLPVSQHSLIAGIKNAVLPGRFEWIQTPAPIVFDVAHNPQATAYLSEQLRKTDHAGRTLGVVGMLRDKDIPGALKPMLPCIDQWYAGTLSESRGATSANLQNVLSELQVENCYNFDSVADAFKKAVEDCRPQDRIVVFGSFYTVAMAKEVLLGGENGN,soluble
11,MKNYIAIHPGEILREEYLKEYALSAYALAKALNVPRTRIERIVAENSRITPDTALRLASFFDTTAEFWLNMQAAYDVSVLQAEKADEFSKISKFECRV,not soluble
12,MKPEDFRASATRPFTGEEYLASLRDDREIYIYGDRVKDVTSHPAFRNAAASMARLYDALHDPQSKEKLCWETDTGNGGYTHKFFRYARSADELRQQRDAIAEWSRLTYGWMGRTPDYKAAFGSALGANPGFYGRFEDNAKTWYKRIQEACLYLNHAIVNPPIDRDKPVDQVKDVFISVDEEVDGGIVVSGAKVVATNSALTHYNFVGQGSAQLLGDNTDFALMFIAPMNTPGMKLICRPSYELVAGIAGSPFDYPLSSRFDENDAILVMDKVFIPWENVLIYRDFERCKQWFPQGGFGRLFPMQGCTRLAVKLDFITGALYKALQCTGSLEFRGVQAQVGEVVAWRNLFWSLTDAMYGNASEWHGGAFLPSAEALQAYRVLAPQAYPEIKKTIEQVVASGLIYLPSGVRDLHNPQLDKYLSTYCRGSGGMGHRERIKILKLLWDAIGSEFGGRHELYEINYAGSQDEIRMQALRQAIGSGAMKGMLGMVEQCMGDYDENGWTVPHLHNPDDINVLDRIRQ,not soluble
13,MKPKFETVELLSPTGEVVELKVVKRGLAQARPEPVDRNKPAWIKAPLPTGPRYQALKAMVRELRLHTVCQEALCPNIGECWTHGTLTVMILGDICTRACKFCAVHTGNPKGLVDPEEPRRVAEAIARMGVRYVVLTSVDRDDLPDGGASHFAATIRAIKERAPGVLVEALTPDFQGDLKAVETVLAANPEVYAQNLETVRRLTPKVRDPRAGYEQTLKVLAHAKKVRPDILTKSSLMLGLGETEEEILEAMRDLRAAGVDILTLGQYLRPTPAHLPVARYVPPEDFKRYEAWGYELGFREVFAGPLVRSSYRADRVFLEATQR,not soluble
14,MKPRKQDEKILSDQYSYFEPIISDSCDIKFDGDKRRIGSIFISHEEICFIRKEEDYIFKISLSDVVDYNTVVTIWKNQASLTLNDNRKITFYFVTNSPLTGFISILKTYMQLSRNKETIIPDDNLLINDDDEQTKVEIFDVVGLNYEGRRKELKKLIKKMKTNDAFFFLYSDLKGNELKEELLYEDKVYEIPDYEVIPGVFLQKEPDNPYDENAIKVMISNEYSEFHVGYVPREYASRLVNYIEDTVSCNAYINGGKYKTLDYLEEKIVTKESDYGLRIHVEYKVLEHHHHHH,soluble
15,MKPTVNVVFNAHHPKDTQPLDKFFDKELKDTHHLDITVGYISEKSLQYLLLIAGTHPDLTITLTCGMHAREGMTAAQLHHARVLHDYLSDHDRGGVFVIPRLRYHGKIYLFHKNQHTDPIAYIGSANLSAIVPGYTSTFETGVILDPAPEDLVLHLNRDVVPLCVPIDTAHVPIIKDQESPMKHVAEATAVSTSDVVAIMSSPFTYSFDLKLKATASSNLNAHNSGGGARKQKNGSFLARNWYEGEIIVGVETTRLPGYPQNKSEFTAVTDDGWSFVCKISGGNGKNLRSKGDLSILGTWLKSRFIEQGALEYGEDATQENIDRFGRTHMTMRYHPDFDVWSFDLSQTPKP,not soluble
16,MKQKRLTFLLLLISNLFCASAQKWYKPEIDLKVEELLSQMTVEEKLGYIGGIDWMYTKSIDRLGIHRMRMSDGPQGIGTKGKSTAYPATVTLAATWNENLAYQYGKALGRDCRARNINVILGPAVNIYRAPMCGRNFEYMGEDPYLTSRICVGYIKGVQDQGVMATVKHFVANNSDYDRNNISNDIDERTLNEIYFPAYKAAIQEAEVGAIMTSYNLMNGIYTTENPWLLKEVLRNQWGFKGLVMSDWGSTHYCVPAARSGLDLEMAGGEKMNPKDMAYYLKTGDVTMDMVDEKVRHILRILIAFGFKDGTEADKSIALDDPQSVETA,not soluble
17,MKQTVLKNNLQNLLESAENILLLQGPVGDFFLRLADWLTANGKTVHKFNFNAGDDYFYPPTQAHTVVFNDNYDAFPEFLQEYITQHHIQAVVCFGDTRPYHVIAKRIANENQASFWAFEEGYFRPYYITLEKDGVNAFSPLPRRADFFLEQFPKLAQQEYKAPTPVHGGFTPMAKNAIRYYIELFRNPRKYPDYIHHRAPNAGHYLKPWSLSILKRLNYYIEDIQIAKRVEAGKYGKFFIVPLQVFNDSQVRIHCDFPSVRSFLLHVLSSFAEHAPADTNIIIKHHPMDRGFIDYWRDIKRFIKEHPELKGRVIYVHDVPLPVFLRHGLGMVTINSTSGLSGLIHNMPVKVLGRAYYDIPGITDQNTLAEFWNHPTPPDKELFHAYRMYHLNVTQINGNFYSQVFFPNKKTSNSSTPVI,not soluble
18,MKRAVITGLGIVSSIGNNQQEVLASLQEGRSGITFAQEFKDAGMRSHVWGDVKLQSEPKDLIDRKVLRFMSDASIYAYLAMQEAIADSGLSDSQVSNFRSGLVVGSGGGSPRNQVAGSDAMRTPRGLKGVGPYMVTKAMASGVSACLATPFKIKGVNYSISSACATSAHCIGHALELIQLGKQDIVFAGGGEELCWEMACEFDAMGALSTKYNDTPAKASRTYDQDRDGFVIAGGGGMVVVEELEHALARGAHIYAEIVGYGATSDGADMVAPSGEGAVRCMQMAMAGVDTPIDYMNVHGTSTPVGDVKELGAIREVFGNNTPAISSTKAMTGHSLGAAGVHEAIFSLLMVEHGFIAPSINIDNLDEQAQGMNIITETTQRELTTVMSNSFGFGGTNATLVMRKYQK,not soluble
